Experimental data as given in paper PMC7244511, “Phosphoproteomics identifies dual-site phosphorylation in an extended basophilic motif regulating FILIP1-mediated degradation of filamin-C” (Communications Biology, 2020).

B1: Myc-hFLNc d18–21 wild type (expressed in HEK293 cells) [human] / FILIP1 CT-GFP (expressed in HEK293 cells) [not stated] (parent)
chain 1: LELSKRYSRALRPSVNGRRMVDVPVTSTGVQTDAVSGEAAEEETPAVFIRKSFQEENHIMSNLRQVGLKKPVERSSVLDRYPPAANELTMRKSWIPWMRKRENGPSITQEKGPRTNSSPGHPGEVVLSPKQGQPLHIRVTPDHENSTATLEITSPTSEEFFSSTTVIPTLGNQKPRITIIPSPNVMPQKQKSGDTTLGPERAMSPVTITTFSREKTPESGRGAFADRPTSPIQIMTVSTSAAPAEIAVSPESQEMPMGRTILKVTPEKQTVPTPVRKYNSNANIITTEDNKIHIHLGSQFKRSPGTSGEGVSPVITVRPVNVTAEKEVSTGTVLRSPRNHLSSRPGASKVTSTITITPVTTSSARGTQSVSGQDGSSQRPTPTRIPMSKESIIIHQLRMNSR
chain 2: TGDDSMRTSQLNVGTSTDVSLKITESDLSQLTASIRAPSGNEEPCLLKRLPNRHIGISFTPKEVGEHVVSVRKSGKHVTNSPFKILVGPSEIGDASKVRVWGKGLSEGHTFQVAEFIVDTRNAGYGGLGLSIEGPSKVDINCEDMEDGTCKVTYCPTEPGTYIINIKFADKHVPGSPFTVKVTGEGRMKESITRRRQAPSIATIGSTCDLNLKIPGNWFQMVSAQERLTRTFTRSSHTYTRTERTEISKTRGGETKREVRVEESTQVGGDPFPAVFGDFLGRERLGSFGSITRQQEGEASSQDMTAQVTSPSGKVEAAEIVEGEDSAYSVRFVPQEMGPHTVAVKYRGQHVPGSPFQFTVGPLGEGGAHKVRAGGTGLERGVAGVPAEFSIWTREAGAGGLSIAVEGPSKAEIAFEDRKDGSCGVSYVVQEPGDYEVSIKFNDEHIPDSPFVVPVASLSDDARR
B2: Myc-tagged FLNc d18–21 WT (expressed in C2 cells) [human] / FILIP1 CT-GFP (expressed in C2 cells) [not stated] (parent)
chain 1: MRSRNQGGESASDGHISCPKPSIIGNAGEKSLSEDAKKKKKSNRKEDDVMASGTVKRHLKTSGECERKTKKSLELSKEDLIQLLSIMEGELQAREDVIHMLKTEKTKPEVLEAHYGSAEPEKVLRVLHRDAILAQEKSIGEDVYEKPISELDRLEEKQKETYRRMLEQLLLAEKCHRRTVYELENEKHKHTDYMNKSDDFTNLLEQERERLKKLLEQEKAYQARKEKENAKRLNKLRDELVKLKSFALMLVDERQMHIEQLGLQSQKVQDLTQKLREEEEKLKAITSKSKEDRQKLLKLEVDFEHKASRFSQEHEEMNAKLANQESHNRQLRLKLVGLTQRIEELEETNKNLQKAEEELQELRDKIAKGECGNSSLMAEVENLRKRVLEMEGKDEEITKTESQCRELRKKLQEEEHHSKELRLEVEKLQKRMSELEKLEEAFSKSKSECTQLHLNLEKEKNLTKDLLNELEVVKSRVKELECSESRLEKAELSLKDDLTKLKSFTVMLVDERKNMMEKIKQEERKVDGLNKNFKVEQGKVMDVTEKLIEESKKLLKLKSEMEEKVYNLTRERDELIGKLKSEEEKSSELSCSVDLLKKRLDGIEEVEREITRGRSRKGSELTCPEDNKIKELTLEIERLKKRLQQLEVVEGDLMKTEDEYDQLEQKFRTEQDKANFLSQQLEEIKHQIAKNKAIEKGEVVSQEAELRHRFRLEEAKSRDLKAEVQALKEKIHELMNKEDQLSQLQVDYSVLQQRFMEEENKNKNMGQEVLNLTKELELSKRYSRALRPSVNGRRMVDVPVTSTGVQTDAVSGEAAEEETPAVFIRKSFQEENHIMSNLRQVGLKKPVERSSVLDRYPPAANELTMRKSWIPWMRKRENGPSITQEKGPRTNSSPGHPGEVVLSPKQGQPLHIRVTPDHENSTATLEITSPTSEEFFSSTTVIPTLGNQKPRITIIPSPNVMPQKQKSGDTTLGPERAMSPVTITTFSREKTPESGRGAFADRPTSPIQIMTVSTSAAPAEIAVSPESQEMPMGRTILKVTPEKQTVPTPVRKYNSNANIITTEDNKIHIHLGSQFKRSPGTSGEGVSPVITVRPVNVTAEKEVSTGTVLRSPRNHLSSRPGASKVTSTITITPVTTSSARGTQSVSGQDGSSQRPTPTRIPMSKGMKAGKPVVAAPGAGNLTKFEPRAETQSMKIELKKSAASSTTSLGGGKG
chain 2: B1 chain 2

Variants of: B1
Experiment: co-immunoprecipitation (anti-Myc) with quantitative immunoblot
Conditions: HEK293 cells transiently expressing FILIP1 CT-GFP and Myc-hFLNc d18–21, n = 3–6, read off a plot

ratio to parent	Variant
1	chain 2 S290D
1	chain 2 S290A
1.4	chain 2 S287A
1	chain 2 S287D
2.1	chain 2 S287A S290A
0.82	chain 2 S287D S290D

Variants of: B2
Experiment: as above
Conditions: C2 cells transiently expressing FILIP1 CT-GFP and Myc-hFLNc d18–21, n = 3, read off a plot

ratio to parent	Variant
1.8	chain 2 S287A S290A
0.82	chain 2 S287D S290D
